Test results as given in the supplement of paper PMC12042874.
± gives the uncertainty stated by the source.

Assay: amyloid nucleation score (Sup35N fusion, yeast selection) (log enrichment); library NNK2; higher = more nucleation; inactive = no reads after selection
How it was run: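 Peptides of 20 random codons, each fused to Sup35N, were expressed in psi-negative yeast. Cells were induced with 100 μM copper sulfate for 24 hours and grown 7 days at 30°C on medium lacking adenine and uracil, and plasmid inserts before and after selection were Illumina-sequenced. Nucleation scores are DiMSum log enrichments of output over input reads, centred on the mode score of non-aggregating sequences, and sequences under 100 input reads were excluded.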

TLENQVGSMSIGGFSGGYRR
amyloid nucleation score: 0.201 ± 1

TVVVWA
amyloid nucleation score: 0.19 ± 0.31

VSTLRQGWSILQTPNYVRS
amyloid nucleation score: -0.219 ± 0.76

AFGFSI
amyloid nucleation score: -1.3 ± 0.42

SYYDGCQS
amyloid nucleation score: 0.646 ± 0.49

FKCNIYYSFRYGSI
amyloid nucleation score: 7.18 ± 0.026

IRSFEFHNAWMCVYIWSKLY
amyloid nucleation score: -0.271 ± 1

AQWCEGVVSLQLSWVVCVEG
amyloid nucleation score: 1.16 ± 0.34

SLWVYLVKMVEIFSLKD
amyloid nucleation score: -0.531 ± 0.55

GHHLISSDFFDYWGHNMFSG
amyloid nucleation score: inactive

SSGFQNSSTNGTDAQS
amyloid nucleation score: 0.101 ± 0.76

MSRNF
amyloid nucleation score: 4.87 ± 0.076

SNNFFNGMICSLFAGGC
amyloid nucleation score: 7.55 ± 0.082

HAVWSVFCEFIVRQCYGLYF
amyloid nucleation score: -1.37 ± 0.41

PSWGSLCMSQNHMHLEV
amyloid nucleation score: -0.087 ± 0.42

DYVTVVGIILVLLLLNFNLG
amyloid nucleation score: inactive

LLNGPVYFFNLWVHGAC
amyloid nucleation score: 8.126 ± 0.052

CKTHPKKNSGFWRKLKGCLG
amyloid nucleation score: 3.17 ± 0.15

FSWLSPMWYMLNDRKLYGNP
amyloid nucleation score: 0.779 ± 0.42

CGQLSVWYEGMINVSCFLEI
amyloid nucleation score: -1.4 ± 0.75

TLLLTWQY
amyloid nucleation score: 4.46 ± 0.067

YNKSSYE
amyloid nucleation score: -1.47 ± 1.1

NARCMCWSGINLVTWYLLKE
amyloid nucleation score: 7.145 ± 0.04

QCGWDFLFIVMCKFVQRRCS
amyloid nucleation score: 0.35 ± 0.8

RANGSSYEREVA
amyloid nucleation score: 0.819 ± 0.47

YCKGSS
amyloid nucleation score: -0.46 ± 1

TIARVIFNPVLCWKVSSRV
amyloid nucleation score: 5.52 ± 0.063

LQAVPIIANCSSTRTANISL
amyloid nucleation score: inactive

GFWFLGCPLYYLVAIFKWII
amyloid nucleation score: inactive

NYFVYNFLVV
amyloid nucleation score: 4.95 ± 0.099

CRLVEAEYSSRKRLQVSLWA
amyloid nucleation score: 0.102 ± 0.79

SWHVVQAVIDVVDREV
amyloid nucleation score: 0.967 ± 0.22

AEYPHAFFSDCACYHIPGSA
amyloid nucleation score: 0.586 ± 0.57

NHLLMGGGHKDAVGQSVFGI
amyloid nucleation score: 0.074 ± 0.74

RATSVSILVQLGETLFCEYT
amyloid nucleation score: 0.56 ± 0.2

FLSKFSCEVKTPDLMSCGKG
amyloid nucleation score: 4.04 ± 0.096

CLLVSEQRSRRHRRGALCIG
amyloid nucleation score: 0.872 ± 0.32

TLECW
amyloid nucleation score: 4.1 ± 0.049

QLPNPKNMISIGNYWKQRSF
amyloid nucleation score: -1.47 ± 1.1

TLTLCTSSLDC
amyloid nucleation score: 1.1 ± 0.61

TNRGCSMKRRKSINPRILGM
amyloid nucleation score: inactive

NLLWYKLNLNTYVACAIKWW
amyloid nucleation score: 0.198 ± 0.38

WRFWLPAKWISRGSFIVYWI
amyloid nucleation score: -0.717 ± 0.32

GNIGYCKRSFSGLQLVGCAR
amyloid nucleation score: -0.464 ± 0.78

DLPYSSVIRKYMSKMWLHMN
amyloid nucleation score: 0.218 ± 0.36

VIFTGKDLLVSLQTKCLAVW
amyloid nucleation score: 0.942 ± 0.81

YPITPFQA
amyloid nucleation score: -0.872 ± 1.1

FIYSHYWWLWLYHTATVIPH
amyloid nucleation score: -1.45 ± 0.62

RNFDMPLLAYGMTWEQLMEF
amyloid nucleation score: 4.51 ± 0.058

DHITVVAIKKEHLVEIIYVY
amyloid nucleation score: -0.904 ± 0.35

RDLASSSS
amyloid nucleation score: -1.1 ± 0.41

HSWILNHNIDVTIGNVTWSG
amyloid nucleation score: 6.863 ± 0.03

LSGWDVHTSSTSVFRNNFIY
amyloid nucleation score: inactive

ILELDMLLCKKVTHL
amyloid nucleation score: 4.3 ± 0.089

IVSAKCYRIMVDFYYGYFRL
amyloid nucleation score: 0.01 ± 0.65

LVKMTLGCATSMLRCLMLSV
amyloid nucleation score: 0.457 ± 0.24

PTSFLKSIVGVIWISANLSR
amyloid nucleation score: 0.696 ± 0.43

NFSTGEGMYRNYNWDSQVRV
amyloid nucleation score: inactive

MSMSHSAGDRDGWIFDHRDV
amyloid nucleation score: 1.46 ± 0.61

KRFIWCFRVTLFT
amyloid nucleation score: -0.633 ± 1.1

MIRWSRRTCRKGLTECTCST
amyloid nucleation score: 1.52 ± 0.33

MHASGHWYMKRSSLGADSPV
amyloid nucleation score: 0.815 ± 0.18

NLGYYTG
amyloid nucleation score: -0.868 ± 1.1

SPVVKFRLLQSINLTHCY
amyloid nucleation score: 4.47 ± 0.05

IFDAFWYTVTVRDNDG
amyloid nucleation score: 1.76 ± 0.17

RQVANWAVVIGNPMVMNPEG
amyloid nucleation score: -0.295 ± 0.63

FLRNPPYESTTQGGRPKGAH
amyloid nucleation score: 0.134 ± 0.51

VRNGFKMRRRMSSPVCETLL
amyloid nucleation score: -0.642 ± 1.1

DRTKNFLCMMKRGFLSKIPW
amyloid nucleation score: 0.227 ± 0.56

KNLMCQARNYSLIGALWSVS
amyloid nucleation score: -0.451 ± 0.76

YLCAFVRWWYR
amyloid nucleation score: -0.029 ± 1.1

FWLSYTDLWNNY
amyloid nucleation score: inactive

TECITVVIWVYGAISHRSGT
amyloid nucleation score: -0.247 ± 0.27

EFFCAHLRADLVLKKNRVVF
amyloid nucleation score: -1.05 ± 0.78

QCMVVQYD
amyloid nucleation score: -0.394 ± 0.65

YGCLNYSRWRTSAGMDTNNG
amyloid nucleation score: -0.794 ± 0.63

CLNQSLRNTSWKHMAEPKKR
amyloid nucleation score: 3.82 ± 0.12

HVADTGLIMQYVVSGLRVAG
amyloid nucleation score: 0.602 ± 0.22

VLWCDKWVGNNMKDGELTLW
amyloid nucleation score: 0.446 ± 0.43

IMVRLLDAYHTMRAKDSMGN
amyloid nucleation score: 0.06 ± 0.62

PFSWVASDNTYQSTSLSIVH
amyloid nucleation score: 0.995 ± 0.51

YQTYF
amyloid nucleation score: -1.08 ± 0.41

VTTNWGSSVRNQAEGYRPSL
amyloid nucleation score: -0.067 ± 0.42

VRVDGPTLWCTQVRLSGERA
amyloid nucleation score: 0.951 ± 0.17

TLFQLFIYLTFKVQVVAGTT
amyloid nucleation score: 3.92 ± 0.083

RYFRATPKVCRLH
amyloid nucleation score: 0.175 ± 0.26

GLQYQYSGLWVR
amyloid nucleation score: 0.236 ± 0.44

IIAPSSEL
amyloid nucleation score: -0.479 ± 0.63

FNIRSFICV
amyloid nucleation score: inactive

QFVHRYGDHNAGVLPSYRKS
amyloid nucleation score: 5.22 ± 0.066

LCSYANKDFKVHRSHDFVRV
amyloid nucleation score: 0.369 ± 0.43

VRFPTSLFSAEQCTPALCSV
amyloid nucleation score: 0.066 ± 1

TCRTSTRRPIGWLSWYVG
amyloid nucleation score: 0.654 ± 0.43

YNFRSSLRNGYKEVRGVQYG
amyloid nucleation score: 5.221 ± 0.043

SCFTLSFKVITLHSRLQFIW
amyloid nucleation score: 0.181 ± 0.35

RLIIPIQSCLWGGWYRTGET
amyloid nucleation score: 8.106 ± 0.054

DCRVGSLSAGRQLSARAAGK
amyloid nucleation score: 0.633 ± 0.41

RTCSRGSFTYMEIGNVGRGC
amyloid nucleation score: 0.275 ± 0.5

DYVNGGCLKFKNWRWKFSLS
amyloid nucleation score: -0.349 ± 0.48

NIAVPEKAVYTYSPSETQAL
amyloid nucleation score: -0.583 ± 0.55

WFNFVPYHADYGNFL
amyloid nucleation score: 0.053 ± 1.1

NRSTRGWGVVSTLCYRLSSF
amyloid nucleation score: inactive

LNMRT
amyloid nucleation score: -0.443 ± 0.64

SEYALYAFE
amyloid nucleation score: -0.173 ± 0.25

SVVSGWWVIIFLYSHGVSIE
amyloid nucleation score: 0.093 ± 0.8

IKTYNGGSWGALSCIALRLI
amyloid nucleation score: -1.39 ± 0.78

CMTSKVLRLDYRRMMVNIDC
amyloid nucleation score: -0.58 ± 0.42

LIRFTLMSTFEITIMSFRCV
amyloid nucleation score: 0.934 ± 0.2

VGRNYLWYRTMPDIYCQVCG
amyloid nucleation score: 1.62 ± 0.077

WYNILLHNSAAEYLTY
amyloid nucleation score: -0.296 ± 0.34

CGNISQVKEDLRMTTLIFRV
amyloid nucleation score: inactive

CRLLCVIGLYVDNLGPPLAR
amyloid nucleation score: -0.044 ± 0.35

CTCNLWYTLMCAFHASRLVH
amyloid nucleation score: 0.327 ± 0.34

ASVPCVIMGRASRPRVPRMS
amyloid nucleation score: 1.42 ± 0.29

TLFSVCSIHEQWPGEVMVSY
amyloid nucleation score: 0.918 ± 0.47

IYRKSICYSFVWALFEVAEW
amyloid nucleation score: -0.398 ± 0.35

HRTKRGRHFIFRTCKQYYPG
amyloid nucleation score: 2.81 ± 0.071

FTLGANLT
amyloid nucleation score: -0.855 ± 0.76

KMLSMDNYD
amyloid nucleation score: 0.043 ± 1

MDLCINNVWWEAKTSSLGLL
amyloid nucleation score: inactive

ILFWFRT
amyloid nucleation score: 4.9 ± 0.043

DFTVSHI
amyloid nucleation score: inactive

VDRFPVLVPKGWHMRRWCIR
amyloid nucleation score: 0.669 ± 0.39

LFVKTLGFLAVCASQ
amyloid nucleation score: 0.609 ± 0.64

HVAFKLKVIVRIVSLTSGER
amyloid nucleation score: 2.94 ± 0.075

YSMVIY
amyloid nucleation score: -0.014 ± 0.76
